# Publication doi:10.1101/2023.08.25.554800, “CryoEM architecture of a native stretch-sensitive membrane microdomain” (bioRxiv, 2023)
# Target: the molecule itself
# Experiment: cryo-EM structure; 15-20uM recombinant Pil1 with ~2mg/mL LUVs of three lipid mixtures (-PI(4,5)P2/+sterol, +PI(4,5)P2/-sterol, +PI(4,5)P2/+sterol), 30°C for 1hr, 20 mM HEPES pH 7.4, 150 mM KoAc, 2 mM MgAc; helical reconstruction
protein,measurement,value
"Recombinant Pil1 (natural protein, S. cerevisiae, UniProt P53252 1-339, looked up, Pil1 of S. cerevisiae, PIL1 cloned into pCoofy6; the printed primers run from the ATG to the stop codon; The N-terminal position of Sumo3 is read from the primer LP1-Sumo3-Pil1-fwd; also called reconstituted Pil1; source: E. coli BL21(DE3)pLysS, purified (HisTrap, HiTrap Q, Sumo3 cleaved with SenP2, Superdex 200); not shown: Sumo3, N-terminal, cleaved) MHRTYSLRNSRAPTASQLQNPPPPPSTTKGRFFGKGGLAYSFRRSAAGAFGPELSRKLSQLVKIEKNVLRSMELTANERRDAAKQLSIWGLENDDDVSDITDKLGVLIYEVSELDDQFIDRYDQYRLTLKSIRDIEGSVQPSRDRKDKITDKIAYLKYKDPQSPKIEVLEQELVRAEAESLVAEAQLSNITRSKLRAAFNYQFDSIIEHSEKIALIAGYGKALLELLDDSPVTPGETRPAYDGYEASKQIIIDAESALNEWTLDSAQVKPTLSFKQDYEDFEPEEGEEEEEEDGQGRWSEDEQEDGQIEEPEQEEEGAVEEHEQVGHQQSESLPQQTTA",binding result,binds
